Results taken from patent publication US20250171562A1 (ALK ABELL, published 2025).

B1: sdAb F6 (VHH)
VHH: DVQLQESGGGLVQAGGSLRLSCAASGLTFGSYDMGWYRQAPGKQRELVGRIRNDGITYYADSVKGRFTMSRDNAKNTVYLQMNSLKPEDTAVYYCAADGTGLGHYDYWGQGTQVTVS
B2: F5A1(G4S)4 (bispecific antibody)
chain: DVQLQESGGGLVQPGGSLRLSCAASGSIFSIDIMGWYRQAPGKQRELVATMPEGNYINYADSVKGRLTLSRDKGKNTVYLQLNSLKPEDTAVYYCYGFGVREGRGNVYWGQGTQVTVSGGGGSGGGGSGGGGSGGGGSEVQLLESGGGLVQPGGSLRLSCAASGFTFGNYDMAWVRQAPGKRPEWVSSIDTGGDITHYADSVKGRFTISRDNAKNTLYLQMNSLRPEDTAVYWCATDEEYALGPNEFDYYGQGTLVTVS
B3: B1A1(G4S)2 (bispecific antibody)
chain: QVQLQESGGGLVQTGGSLRLSCAVHGRTFSNTGMGWFRQAPGNERQFVAIISPSGTSTYYADSVKGRFTISRDPAKNTVYLQMNSLKMDDTAVYYCAASYGSNWSTLRHQRRNEYDAWGQGTQVAVSGGGGSGGGGSEVQLLESGGGLVQPGGSLRLSCAASGFTFGNYDMAWVRQAPGKRPEWVSSIDTGGDITHYADSVKGRFTISRDNAKNTLYLQMNSLRPEDTAVYWCATDEEYALGPNEFDYYGQGTLVTVSS
B4: sdAb A2 (VHH)
VHH: EVQLLESGGGLVQPGGSLRLSCAASGFRFGNYDMAWVRQAPGKRYEWVSSIDTGGDITHYADSVKGRFTISRDNAKNTLYLQMNSLRPEDTAEYWCATDEEYALGPNEFDYYGQGTLVTVS
notes: also called A1 triple mutant (T28R, P45Y, V93E)
B5: A1B1(G4S)1 (bispecific antibody)
chain: EVQLLESGGGLVQPGGSLRLSCAASGFTFGNYDMAWVRQAPGKRPEWVSSIDTGGDITHYADSVKGRFTISRDNAKNTLYLQMNSLRPEDTAVYWCATDEEYALGPNEFDYYGQGTLVTVSSGGGGSQVQLQESGGGLVQTGGSLRLSCAVHGRTFSNTGMGWFRQAPGNERQFVAIISPSGTSTYYADSVKGRFTISRDPAKNTVYLQMNSLKMDDTAVYYCAASYGSNWSTLRHQRRNEYDAWGQGTQVAVS
B6: A1B1(G4S)3 (bispecific antibody)
chain: EVQLLESGGGLVQPGGSLRLSCAASGFTFGNYDMAWVRQAPGKRPEWVSSIDTGGDITHYADSVKGRFTISRDNAKNTLYLQMNSLRPEDTAVYWCATDEEYALGPNEFDYYGQGTLVTVSSGGGGSGGGGSGGGGSQVQLQESGGGLVQTGGSLRLSCAVHGRTFSNTGMGWFRQAPGNERQFVAIISPSGTSTYYADSVKGRFTISRDPAKNTVYLQMNSLKMDDTAVYYCAASYGSNWSTLRHQRRNEYDAWGQGTQVAVS
B7: B1A1(G4S)3 (bispecific antibody)
chain: QVQLQESGGGLVQTGGSLRLSCAVHGRTFSNTGMGWFRQAPGNERQFVAIISPSGTSTYYADSVKGRFTISRDPAKNTVYLQMNSLKMDDTAVYYCAASYGSNWSTLRHQRRNEYDAWGQGTQVAVSGGGGSGGGGSGGGGSEVQLLESGGGLVQPGGSLRLSCAASGFTFGNYDMAWVRQAPGKRPEWVSSIDTGGDITHYADSVKGRFTISRDNAKNTLYLQMNSLRPEDTAVYWCATDEEYALGPNEFDYYGQGTLVTVSS
B8: B1A1(G4S)1 (bispecific antibody)
chain: QVQLQESGGGLVQTGGSLRLSCAVHGRTFSNTGMGWFRQAPGNERQFVAIISPSGTSTYYADSVKGRFTISRDPAKNTVYLQMNSLKMDDTAVYYCAASYGSNWSTLRHQRRNEYDAWGQGTQVAVSGGGGSEVQLLESGGGLVQPGGSLRLSCAASGFTFGNYDMAWVRQAPGKRPEWVSSIDTGGDITHYADSVKGRFTISRDNAKNTLYLQMNSLRPEDTAVYWCATDEEYALGPNEFDYYGQGTLVTVSS

Target: T1, recombinant human IgE (human, UniProt P01854-1 1-428)
T1 construct: made in-house (ALK); preloaded on immobilised FcεRIα in the displacement ELISA
T1 sequence (P01854 other isoform, or with tags, fused parts or gaps): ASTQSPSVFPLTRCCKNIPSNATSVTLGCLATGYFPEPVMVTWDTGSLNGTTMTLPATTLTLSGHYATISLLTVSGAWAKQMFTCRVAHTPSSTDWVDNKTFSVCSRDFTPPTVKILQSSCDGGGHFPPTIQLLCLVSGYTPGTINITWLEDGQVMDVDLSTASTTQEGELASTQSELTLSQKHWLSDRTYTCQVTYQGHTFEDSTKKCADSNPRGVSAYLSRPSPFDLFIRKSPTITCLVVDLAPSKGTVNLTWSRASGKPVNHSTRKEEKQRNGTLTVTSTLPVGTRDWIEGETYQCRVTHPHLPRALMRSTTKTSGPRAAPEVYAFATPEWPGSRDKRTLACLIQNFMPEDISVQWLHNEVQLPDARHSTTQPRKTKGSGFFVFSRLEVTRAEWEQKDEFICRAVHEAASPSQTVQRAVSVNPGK
Test: IgE-FcεRIα displacement ELISA
Procedure: The displacement effect was tested using IgE-FcεRIα displacement ELISA assay. Maxisorp® microtiter plates (Thermo Scientific Nunc, Roskilde, Denmark) were coated with 100 μl streptavidin, 5 μg/ml (Thermo Scientific, Waltham, MA) for 18 h at 4° C. followed by wash with 300 μl washing buffer (PBS containing 0.05% Tween 20) using an AquaMax® 2000 plate washer (Molecular Devices, San Jose, CA). Remaining binding sites were blocked with 250 μl blocking buffer (PBS containing 2% BSA) for 2 h and washed with 300 μl washing buffer. Subsequently, the bound streptavidin was loaded with 100 μl (0.1 μg/ml) recombinant human FcεRIα (site specific biotinylated via avi-tag, made in-house, ALK, Hørsholm, Denmark) for 1 h and plates washed twice with 300 μl washing buffer. The bound receptor was then loaded with 100 μl recombinant human IgE (made in-house, ALK, Hørsholm, Denmark), 13 ng/ml (pre-titrated to reach an OD₄₅₀ signal in the range of 1.5-2.5 in the absence of displacement components) for 1h followed by three washes of 300 μl washing buffer.
displacement step: 100 μl sdAbs diluted in concentration series (pM-μM range) or blocking buffer only as a non-displacement negative control, were added to the ELISA wells and incubated for 1 h. Any IgE, displaced from the receptor by a sdAb was washed away by three washes of 300 μl washing buffer.
The ability of the various sdAbs to displace IgE from the receptor (FcεRIα) was evaluated by use of the ELISA based IgE-FcεRIα displacement assay. The percent displacement effect was calculated as the relative reduction in signal compared to the control with no sdAb added. The EC₅₀ values and the maximal effects were determined (table 15).

Binder | Max effect [%] | EC50 [nM]
B1 | < 20 | 
B2 | 75 | 1100
B3 | > 95 | 10
B4 | > 95 | 250
B5 | > 95 | 1
B6 | > 95 | 0.6
B7 | > 95 | 5.3
B8 | > 95 | 5.3
